Target: CagV (Helicobacter pylori (endogenous in strain 26695))
Experiment: cross-linking; 5 mM DSP added to wild‐type H. pylori extract (0.1% DDM, 0.2% sarcosine) on ice for 25 min; SDS/PAGE and western blot with anti‐CagV antibody (mice); ΔcagV extract as control

## CagV (natural protein)
  stoichiometry N: 2

Reference: article PMC5494299
